The source of these data is the supplement of paper PMC9170038.

This data set has as its system MS2 coat protein. Nature of the data set: apparent KD of MS2 coat protein; designed switch direction (-1 OFF switch, 1 ON switch): -1; higher = weaker reporter binding. Put shortly: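 An oligonucleotide input, 200 uM small-molecule ligand, or no input was present during titration of SNAP-549-labelled MS2 coat protein, which was doubled from 0.7 or 1.5 nM to 3 µM. Designed RNA switches had been transcribed on Illumina chips by stalled E. coli RNA polymerase. Apparent KD per design is the median over clusters of curves fitted to normalised cluster fluorescence.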

The mark [1] stands for this setting: input ligand: microRNA oligo, concentration not stated.
[2] abbreviates: Eterna round: R95, input ligand: FMN 200 uM.
Setting [3] is: Eterna round: R95, input ligand: microRNA oligo, concentration not stated.
The mark [4] stands for this setting: Eterna round: R95, input ligand: none.

For the sequence “GCUGGUCGAGGAUAUACAUUCGUGCUUCGGCACGUAAGAUCACAUGAGGAUCACCCAUGUAGAAGGCGACCAGC [E2/5-A1] (Eterna round: R97, puzzle: Exclusion 2)”, the “apparent KD of MS2 coat protein” value was determined as 930 nM (input ligand: FMN 200 uM) and 112 nM (input ligand: none).
On the same counts, the results for “GCUUAACAUGAGGAUCACCCAUGUUAGGAUAUGCGAACUCGUAAGAUGCAGGGAGAUUGCAGAAGGAACGUGGC [EX1 C.15] (Eterna round: R97, puzzle: Exclusion 1)” are 22 nM and 18.2 nM.
As to “GCUUGCUUUUUGGUUUUCAACAUGAGGAUCACCCAUGUUCGUCUUGUGCCCGGGCCCGGGCGGUGCCCGGGCCCGGG [A 9%] (Eterna round: R97, puzzle: Sensor, turn-off variant 1)”, the “apparent KD of MS2 coat protein” value reads like this: (input ligand: FMN 200 uM) 17.9 nM; (input ligand: none) 17.8 nM.
On to “GCUUGUGGGCAAGGAUAUCCUACGCUGUUCUGGUUCGUGUCUGUCACAUGAGGAUCACCCAUGUGGGAGAAGGUGCAUUUGGGU [Design 58] (Eterna round: R96, puzzle: Exclusion NG 2)”, for which the “apparent KD of MS2 coat protein” value reads like this: (input ligand: FMN 200 uM) 17.7 nM; under setting [1], 21.2 nM; (input ligand: none) 20.9 nM.
Turning to “GCUUGUGGGCAAGGAUAUCCUACGUUGUUCUGGUUCGUGUCUGUCACAUGAGGAUCACCCAUGUGGGAGAAGGUGCAUUUGGUG [Design 61] (Eterna round: R96, puzzle: Exclusion NG 2)”, the “apparent KD of MS2 coat protein” value under setting [1] was found to be 12.9 nM.
Consider “GCUUUUGGGCAAGGAUAUCCUGCGCGGUUCCGGUUCGUGUCUGUCACAUGAGGAUCACCCAUGUGGGAGAAGGUGCCUGUGGUG [Design 72] (Eterna round: R96, puzzle: Exclusion NG 2)”, for which the “apparent KD of MS2 coat protein” value by setting is: (input ligand: FMN 200 uM) 28.3 nM; under setting [1], 13.6 nM; (input ligand: none) 18.4 nM.
Take “GGAAAAGCAGGAUAUACAUGAGGAUCACCCAUGUAGGCUCGCCGAGACGUGGAUGGACGUAGAAGGGCUAUUCC [Eternabot (L1) Solution 65] (Eterna round: R97, puzzle: Exclusion 3)”: the “apparent KD of MS2 coat protein” value was 121 nM (input ligand: FMN 200 uM) and 28.9 nM (input ligand: none).
For “GGAAGGAGAGGAUAUGAGGGAGAGAACAUGAGGAUCACCCAUGUGAGACCUCAGGAUCGAUCAGAAGGCUCAGUCC [AK-MS2ROC-r4-exclusion5-12] (Eterna round: R97, puzzle: Exclusion 5)”, in that order: 692 nM and 232 nM.
“GGAAGGUGAGGAUAUACUAAGCCGGAAACGGCAGGUGGGAGACAUGAGGAUCACCCAUGUAGAAGGCACGGAGA [AK-MS2ROC-r4-exclusion2-18] (Eterna round: R97, puzzle: Exclusion 2)”: the “apparent KD of MS2 coat protein” value by setting is: (input ligand: FMN 200 uM) 703 nM; (input ligand: none) 113 nM.
As to “GGAAUACAUGAGGAUCACCCAUGUAAGGAUAUGCUGAAUAUCACGGAAUAAACGUGCAGCAGAAGGUACAAAGG [Mat - Mod of my Eli Mod D46] (puzzle: Exclusion 1)”, the “apparent KD of MS2 coat protein” value reads like this: under setting [2], 103 nM; under setting [3], 65.9 nM; under setting [4], 93.6 nM.
“GGACAUUCGGUAAGGAUAUUGACCCAACCUAGGAUCAAGAAGGUACAUGAGGAUCACCCAUGUCAGAUCCGUCA [Eternabot (Original) Solution 34] (Eterna round: R97, puzzle: Brourd's mod of Exclusion 4)”: the “apparent KD of MS2 coat protein” value (input ligand: FMN 200 uM) worked out at 27.4 nM and the “apparent KD of MS2 coat protein” value (input ligand: none) was found to be 16 nM.
Take “GGACCGCGGCAAGGAUAUCUUUGUCAACAUAAAACAUGAGGAUCACCCAUGUGCAUCUUCGUGUGAGAGAAGGUGCGGCAGUCC [Isisgeri] (Eterna round: R96, puzzle: Exclusion NG 2)”: the “apparent KD of MS2 coat protein” value amounted to 222 nM (input ligand: FMN 200 uM), 113 nM under setting [1] and 127 nM (input ligand: none).
For the sequence “GGAGCAAUGGAGGAUAUCAGGAGCGCUGCUUACUGAGAAGGCCGUACAUGAGGAUCACCCAUGUCUGGGUACGC [Eternabot (L1) Solution 21] (Eterna round: R97, puzzle: Exclusion 6)”, the “apparent KD of MS2 coat protein” value by setting is: (input ligand: FMN 200 uM) 176 nM; (input ligand: none) 167 nM.
For “GGAGGAGAGGUUAGGAUAUCCUCCUCGAAAGAGGAGGAGAAGGAACAUGAGGAUCACCCAUGUAAGGAAGGAGG [AK-MS2ROC-r4-Bmoexclusion4-10] (Eterna round: R97, puzzle: Brourd's mod of Exclusion 4)”, in that order: 27.1 nM and 37 nM.
Take “GGAUAAAAGGCAGGAUAUACGUAUCACUAACGAGUAGAAGGGCCACAUGAGGAUCACCCAUGUGAGUUCUCAAUAAGAAACACG [Prohibition 63 - Jieux - Exclusion NG 1] (Eterna round: R96, puzzle: Exclusion NG 1)”: the “apparent KD of MS2 coat protein” value reads like this: (input ligand: FMN 200 uM) 15.3 nM; under setting [1], 10.7 nM; (input ligand: none) 14.2 nM.
As to “GGAUAGUGAGGAUAUCGAUGUUAGGAGGAUGAGGUAGGAUGCGAGAAGGCACAUGAGGAUCACCCAUGUAUGGU [JR_Exclu4_Sub070] (puzzle: Exclusion 4)”, the “apparent KD of MS2 coat protein” value under setting [3] came to 38.4 nM.
Consider “GGAUAUAAGUCAGGAUAUGAGCGCAACUGACGAUCAGAAGGGACACAUGAGGAUCACCCAUGUGAUCUAUCAAUAUUAUACAUG [Prohibition 93 - Jieux - Exclusion NG 1] (Eterna round: R96, puzzle: Exclusion NG 1)”, for which the “apparent KD of MS2 coat protein” value turned out to be 29.1 nM (input ligand: FMN 200 uM), 19 nM under setting [1] and 22.4 nM (input ligand: none).
For the sequence “GGAUCGAGAGUGAGGAUAUGCUGGUCCUUGGAUCAGCAGAAGGCACAUGAGGAUCACCCAUGUGAUUCCGAUCC [Mat - Exclusion 4 - Eli Mod - D39] (Eterna round: R97, puzzle: Brourd's mod of Exclusion 4)”, the “apparent KD of MS2 coat protein” value (input ligand: FMN 200 uM) was determined as 399 nM and the “apparent KD of MS2 coat protein” value (input ligand: none) stood at 40.6 nM.
In the case of “GGAUCGAGUGUGAGGAUAUGCAGGUCCUUGGAUCUGCAGAAGGCACAUGAGGAUCACCCAUGUGGAGACGGUCC [Mat - Exclusion 4 - JL Mod - D75] (puzzle: Brourd's mod of Exclusion 4)”, the “apparent KD of MS2 coat protein” value runs as follows: under setting [2], 406 nM; under setting [3], 64.2 nM; under setting [4], 110 nM.
As for “GGAUCGAGUGUGAGGAUAUGCUGGUCCUUGGAUCAGCAGAAGGCACAUGAGGAUCACCCAUGUGAAAACGGUCC [Mat - Exclusion 4 - JL Mod - D70] (puzzle: Brourd's mod of Exclusion 4)”, the “apparent KD of MS2 coat protein” value under setting [3] amounted to 22.7 nM.
With “GGAUCGAUAGUGAGGAUAUACCACUGGAUACAGUGGUAGAAGGCACAUGAGGAUCACCCAUGUCCUAACGAUCC [Fiskers BMX 4 - 49] (puzzle: Brourd's mod of Exclusion 4)”, under setting [3], the “apparent KD of MS2 coat protein” value came to 17.6 nM.
As to “GGCACACAUGAGGAUCACCCAUGUGAGGAUAUGCUGCGAUCGUCGUAAGACGAUAGCAGUAGAAGGCACAUGCC [Mat - Exclusion 1 - Eli Mod - D8] (Eterna round: R97, puzzle: Exclusion 1)”, the “apparent KD of MS2 coat protein” value turned out to be 22.9 nM (input ligand: FMN 200 uM) and 20.5 nM (input ligand: none).
“GGCACACAUGAGGAUCACCCAUGUGAGGAUAUGGUGCGAUCGUCGAUAGACGAUAGCACCAGAAGGCACAUGCC [Mat - Exclusion 1 - Eli Mod - D5] (Eterna round: R97, puzzle: Exclusion 1)”: the “apparent KD of MS2 coat protein” value by setting is: (input ligand: FMN 200 uM) 33.6 nM; (input ligand: none) 15.4 nM.
For “GGCAUGCAAGGAUAUACUUACGGUGGUGUUCGAAGCUUUCUACUUGAGGAUCACCCAAGUAGAAGGUGCAUGCC [jl-ex2.4.74 ViennaUCT mod] (Eterna round: R97, puzzle: Exclusion 2)”, in that order: 18.7 nM and 23.7 nM.
For “GGCAUGUGAGGAUAUGUACCUGAGUGCUUUGCGCUCAGGAAACAGAAGGCACAUGAGGAUCACCCAUGUGAAAU [jl-ex4-4.48 ViennaUCT mod] (Eterna round: R97, puzzle: Exclusion 4)”, the “apparent KD of MS2 coat protein” value runs as follows: (input ligand: FMN 200 uM) 96.8 nM; (input ligand: none) 251 nM.
In the case of “GGCCUACGAGGAUAUCGCUAGCGGGACAUGAGGAUCACCCAUGUGUCGGACCGCGUCAUGCGAGAAGGUGUAAUGA [Ribeceve] (puzzle: Exclusion 5)”, the “apparent KD of MS2 coat protein” value under setting [3] was found to be 14.9 nM.
In the case of “GGCGAAGUAGGAUAUACAUGAGGAUCACCCAUGUUACCUGAUGGCGUAGGUCUUCUAUGUAGAAGGGCUACGCC [jl-ex3-4.36 ViennaUCT mod] (Eterna round: R97, puzzle: Exclusion 3)”, the “apparent KD of MS2 coat protein” value amounted to 16.9 nM (input ligand: FMN 200 uM) and 16.9 nM (input ligand: none).
In the case of “GGCUAGUCAGGAUAUACGAACAUGUCAAAAGACGUGAAGGGACAUGAGGAUCACCCAUGUAGAAGGGACUAGCC [salish99_ex2_r3_004] (Eterna round: R96, puzzle: Exclusion 2)”, the “apparent KD of MS2 coat protein” value is, setting by setting: (input ligand: FMN 200 uM) 181 nM; under setting [1], 21.9 nM; (input ligand: none) 27.5 nM.
In the case of “GGCUAGUCAGGAUAUACGAACAUGUCAAAAGACGUGAAGGGACAUGAGGAUCACCCAUGUAGAAGGGACUAGCC [salish99_ex2_r3_004] (puzzle: Exclusion 2)”, the “apparent KD of MS2 coat protein” value under setting [3] came out at 21.8 nM.
The same measure, in the same setting: then “GGCUAGUCAGGAUAUACGAACAUGUCAAAAGACGUGAAGGGACAUGAGGAUCACCCAUGUAGAAGGGACUAGCU [salish99_ex2_r3_003] (puzzle: Exclusion 2)”, with 27.9 nM.
On to “GGCUGCAAUGUAGGAUAUCUGCACGAUUAGUGCAGAGAAGGACAUGAGGAUCACCCAUGUAUAGUAGCUUCGGCUACAGCAGCC [ENG1-D1] (Eterna round: R96, puzzle: Exclusion NG 1)”, for which the “apparent KD of MS2 coat protein” value runs as follows: (input ligand: FMN 200 uM) 17.1 nM; under setting [1], 14.2 nM; (input ligand: none) 15.6 nM.
